Experimental data taken from US20130115216A1.

Key:
[1] = biological target: HLA-A2 (HLA-A*0201) (human); assay: assembly assay, HLA-A2 recovery from T2 cell lysate
[2] = biological target: HLA-A2 (HLA-A*0201) (human); assay: assembly assay, HLA-A2 recovery from TAP-deficient cell lysate

Work on “C1 (HIV-1 pol476-484) (peptide; other documents disagree on this pair)” yielded a C50 [1] of 0.7 µM and a C50 [2] of 0.2 µM.
